{"source": "paper PMC4918631", "about": "(Chembiochem : a European journal of chemical biology, 2016)", "data": [{"molecular_target": "T1, SipD (residues 39-343, C244S) (Salmonella typhimurium strain SL1344, UniProt Q56026 39-343, C244S)", "T1 sequence": "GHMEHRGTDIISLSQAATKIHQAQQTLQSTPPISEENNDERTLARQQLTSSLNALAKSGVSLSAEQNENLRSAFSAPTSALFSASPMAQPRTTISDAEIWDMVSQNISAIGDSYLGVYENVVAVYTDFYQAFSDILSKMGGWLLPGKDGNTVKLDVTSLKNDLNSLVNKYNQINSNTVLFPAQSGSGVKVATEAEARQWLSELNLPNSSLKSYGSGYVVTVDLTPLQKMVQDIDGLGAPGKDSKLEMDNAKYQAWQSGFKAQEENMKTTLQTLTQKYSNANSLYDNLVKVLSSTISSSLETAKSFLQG", "assay": "NMR paramagnetic relaxation enhancement", "values": [{"binder": "SipB^82-312 D207C, MTSL spin-labeled (domain or fragment, MTSL nitroxide spin label on the engineered cysteine at 207) EGQLTLLLGKLMTLLGDVSLSQLESRLAVWQAMIESQKEMGIQVSKEFQTALGEAQEATDLYEASIKKTDTAKSVYDAATKKLTQAQNKLQSLDPADPGYAQAEAAVEQAGKEATEAKEALDKATCATVKAGTDAKAKAEKADNILTKFQGTANAASQNQVSQGEQDNLSNVARLTMLMAMFIEIVGKNTEESLQNDLALFNALQEGRQAEMEKKSAEFQEETRKAEETNR", "binding result": "binds"}, {"binder": "SipB^82-312 Asn-283 cysteine mutant, MTSL spin-labeled (domain or fragment, MTSL nitroxide spin label on the engineered cysteine at 283) EGQLTLLLGKLMTLLGDVSLSQLESRLAVWQAMIESQKEMGIQVSKEFQTALGEAQEATDLYEASIKKTDTAKSVYDAATKKLTQAQNKLQSLDPADPGYAQAEAAVEQAGKEATEAKEALDKATDATVKAGTDAKAKAEKADNILTKFQGTANAASQNQVSQGEQDNLSNVARLTMLMAMFIEIVGKNTEESLQNDLALFCALQEGRQAEMEKKSAEFQEETRKAEETNR", "binding result": "binds"}, {"binder": "SipB^82-312 Lys-211 cysteine mutant, MTSL spin-labeled (domain or fragment, MTSL nitroxide spin label on the engineered cysteine at 211) EGQLTLLLGKLMTLLGDVSLSQLESRLAVWQAMIESQKEMGIQVSKEFQTALGEAQEATDLYEASIKKTDTAKSVYDAATKKLTQAQNKLQSLDPADPGYAQAEAAVEQAGKEATEAKEALDKATDATVCAGTDAKAKAEKADNILTKFQGTANAASQNQVSQGEQDNLSNVARLTMLMAMFIEIVGKNTEESLQNDLALFNALQEGRQAEMEKKSAEFQEETRKAEETNR", "binding result": "binds"}]}]}
